Assay results: US12258605B2, “Alkane oxidation by modified hydroxylases” (The California Institute of Technology, priority 2005, dated 2025)

What was measured:
Assay type in all cases: biochemical
[1] = Kinetic constants for n-alkanes: heptane; conditions: N.m = not measurable
Procedure: (§1) Rate measurements. Initial rates of product formation were determined at 25° C. in 100 mM KPi pH 8.0 buffer using purified protein (100 nM) and a substrate concentration of 1.6 mM. In a 5 mL-vial, 20 μL of alkane solution (in ethanol) were dissolved in 400 μL KPi buffer, to which 500 μL enzyme solution at 100-200 nM was added. Reaction was initiated by adding 100 μL of 5 mM NADPH solution, followed by stirring at 300 rpm for 1 minute, and quenched by adding 200 μL chloroform and stirring at 800 rpm for 10 sec. Solutions were transferred to an Eppendorf tube, to which internal standard (10 μL 25 mM 1-bromohexane in ethanol) was added. Tubes were vortexed for 10 sec and centrifuged for 30 sec at 10,000 g. Organic phase was removed and analyzed by GC. For propane, reactions were carried out in a 5 mL-scale using 100-400 nM purified enzyme, propane-saturated buffer (propane concentration≈1.6 mM) and a final NADPH concentration of 500 μM. Reactions were stopped by addition of 200 μL H2SO4 conc. and analyzed by derivatization to alkyl nitrites followed by GC-ECD analysis as described below.
(§2) Products from alkane reactions were identified and quantified by gas chromatography using authentic standards and calibration curves with internal standards. For the reactions with alkanes from pentane to decane, GC analyses were carried out using a Shimadzu GC-17A gas chromatograph, Agilent HP5 column (30 m×0.32 mm×0.1 μm film), 1 μL injection, FID detector, and the following separation program: 250° C. inlet, 250° C. detector, 50° C. oven for 3 min, 5° C./min gradient to 100° C., 25° C./min gradient to 230° C., and 230° C. for 3 min. For butane and propane (TTN) reactions, GC analyses were carried out using a Hewlett-Packard 5890 Series II Plus gas chromatograph, Supelco SPB-1 column (60 m×0.52 mm×0.5 μm film), 0.5 μL injection, FID detector, and the following separation program: 250° C. inlet, 275° C. detector, 80° C. oven for 2 min, 10° C./min gradient to 110° C., 25° C./min gradient to 275° C., and 275° C. for 2.5 min. For ethane and propane (rate) reactions, analysis of reaction mixtures was carried out by derivatization to alkyl nitrites followed by GC-ECD analysis. For laurate, reaction product analysis was carried out by derivatization with N-methyl-N-trimethylsilylheptafluorobutyramide followed by extraction with hexane. Organic solutions were analyzed by FID-GC.
To further investigate the evolution of substrate specificity, kinetic constants for the C5 to C8 alkanes were determined from Michaelis-Menten plots (Table 19). The preference of 35E11 and its evolutionary predecessors for medium-chain alkanes is indicated by their high C8/C5 specificities ((kcat/Km)8/(kcat/Km)5˜100), where Km appears to be the major contributing factor. C8/C5 specificity decreases to ˜5 in the immediate precursors of P450PMO and then switches altogether to the smaller alkane, becoming 0.4 in P450PMO. In P450PMO, catalytic efficiency is highest on propane and decreases along the alkane series, driven by decreasing kcat.

[2] = Kinetic constants for n-alkanes: hexane; conditions: N.a. = not active
Procedure: as §1, §2
To further investigate the evolution of substrate specificity, kinetic constants for the C5 to C8 alkanes were determined from Michaelis-Menten plots (Table 19). The preference of 35E11 and its evolutionary predecessors for medium-chain alkanes is indicated by their high C8/C5 specificities ((kcat/Km)8/(kcat/Km)5˜100), where Km appears to be the major contributing factor. […]

[3] = Reactions on alkanes, total turnovers (Table 18): heptane; conditions: heptane (7 C atoms)
Procedure: (§3) Reactions on alkanes. Reactions with alkanes from pentane to decane were carried out at 3 mL-scale using 100 mM KPi pH 8.0 buffer containing 2% ethanol (to allow alkane solubilization) and purified protein. 2.5 mL KPi buffer were added with 60 μL of 90 mM alkane solution in ethanol (final conc.=1.8 mM), 150 μL enzyme solution at 1 μM (final conc.=50 nM), and 300 μL NADPH regeneration solution (100 units/mL isocitrate dehydrogenase, 70 mg/mL isocitrate, 1.5 mg/ml NADP^+). Vials were sealed and stirred for 24 hours at 4° C. 1 mL-aliquot of the reaction was removed, added with 10 μl internal standard (25 mM 1-bromohexane in ethanol), and extracted with 200 μl chloroform (30 sec vortexing, 1 min centrifugation at 10000 g). The organic phase was removed and analyzed by gas chromatography. Reactions with ethane, propane, and butane were carried out as described for longer alkanes with the only difference that alkane-saturated KPi buffer was used. Propane reactions with variants from HL5 and L9 libraries were performed on 1 mL-scale reaction using 20 nM enzyme to reduce oxygen limitation. Propane and butane reactions were analyzed by direct injection of reaction solution on the GC using 1-pentanol as internal standard. Ethane reaction products were functionalized (see below) and analyzed by GC using 1-butanol as internal standard. All measurements were performed in triplicate.
as §2
(§4) TTNs for each variant-substrate pair were determined using standardized reaction conditions (identical enzyme and substrate concentration, incubation time, cofactor regeneration system) (Table 18). TTN values were used to assess performance because TTN is a cumulative measure of both catalytic and coupling efficiency and because mutants were selected based on improvement in this property. To facilitate comparison among the variants, TTNs were normalized to the highest value in the series (MTN=Maximal Turnover Number) and plotted for the increasing-sized substrates (FIG. 38). A gradual shift of the enzyme's substrate preference during laboratory evolution is evident from these profiles. The marginal activity of wild-type BM3 on these substrates (MTN=150) is restricted to the long-chain alkanes, where it is a promiscuous function of BM3's high C12-C20 fatty acid hydroxylase activity. In the first evolutionary intermediates, substrate preference centers on medium-chain alkanes […], reflecting their selection for activity on octane. In 35E11, selected for activity on propane, preference still centers on C6-C8 alkanes but now extends towards the shorter ones, including propane. Propane activity becomes prevalent with the transition from variant ETS8 to 19A12. […]

[4] = Reactions on alkanes, total turnovers (Table 18): decane; conditions: decane (10 C atoms)
Procedure: as §3, §2, §4

[5] = Reactions on alkanes, total turnovers (Table 18): octane; conditions: octane (8 C atoms)
Procedure: as §3, §2, §4

[6] = TTN normalized to the highest value of the variant's series
[7] = total turnovers, standardized reaction conditions

B1: P450PMO: P450 BM-3 variant, SEQ ID NO:125; 7-7 plus G443A and D698G; propane monooxygenase (protein)
chain: TIKEMPQPKTFGELKNLPLLNTDKPVQALMKIADELGEIFKFEAPGCVTRYISSQRLIKEACDESRFDKNLSQELKFFRDFGGDGLFTSWTHEINWKKAHNILLPSFSQQAMKGYHAMMVDIAVQLVQKWERLNADEHIEVSEDMTRLTLDTIGLCGFNYRFNSFYRDQPHPFIISMVRALDEVMNKPQRANPDDPAYDENKRQCQEDIKVMNDLVDKIIADRKARGEQSDDLLTQMLNGKDPETGEPLDDGNISYQIITFLIAGHETTSGLLSFALYFLVKNPHVLQKVVEEAARVLVDPVPSYKQVKQLKYVGMVLNEALRLWPTFPAFSLYAKEDTVLGGEYPLEKGDEVMVLIPQLHRDKTVWGDDVEEFRPERFENPSAIPQHAFKPFGNGQRACIGQQFALHEATLVLGMMLKHFDFEDHTNYELDIKETLTLKPEAFVVKAKSKKIPLGGIPSPSTGQSAKKVRKKAENAHNTPLLVLYGSNMGTAEGTARDLADIAMSKGFAPQVATLDSHAGNLPREGAVLIVTASYNGHPPDNAKQFVDWLDQASADEVKGVRYSVFGCGDKNWATTYQKVPAFIDETLAAKGAENIADRGEADASDDFEGTYEEWREHMWSDVAAYFNLDIENSEDNKSTLSLQFVDSAADMPLAKMHGAFSTNVVASKELQQPGSARSTRHLEIELPKEASYQEGGHLGVIPRNYEGTVNRVTARFGLDASQQIRLEAEEEKLAHLPLAKTVSVEELLQYVELQDPVTRTQLRAMAAKTVCPPHKVELEALLEKQAYKEQVLAKRLTMLELLEKYPACEMKFSEFIALLPSIRPRYYSISSSPRVDEKQASITVSVVSGEAWSGYGEYKGIASNYLAELQEGDTITCFISTPQSEFTLPKDPETPLIMVGPGTGVAPFRGFVQARKQLKEQGQSLGEAHLYFGCRSPHEDYLYQEELENAQSEGIITLHTAFSRMPNQPKTYVQHVMEQDGKKLIELLDQGAHFYICGDGSQMAPAVEATLMKSYADVHQVSEADARLWLQQLEEKGRYAKDVWAG
modifications: Mutant P450PMO protein sequence
notes: 7-7 plus G443A and D698G; propane monooxygenase
- kcat [1]: 32 ± 5 min⁻¹
- Km ([1]; read-out: Km): 190 ± 40 µM
- Km [2]: 430 ± 91 µM
- kcat [2]: 85 ± 17 min⁻¹
- % rel. act. [3, 6]: 14.6%
- TTN [3, 7]: 2990 ± 165
- % rel. act. [4, 6]: 5.3%
- TTN [4, 7]: 1080 ± 30
- % rel. act. [5, 6]: 9.2%
- TTN [5, 7]: 1880 ± 60
